According to patent publication US20060134122A1, “Peptides of syndecan-1 for inhibition of cancer” (priority 2004, published 2006):

B1: GST-mS1ED: recombinant mouse syndecan-1 ectodomain expressed as a fusion protein with GST (protein)
chain: QIVAVNVPPEDQDGSGDDSDNFSGSGTGALPDTLSRQTPSTWKDVWLLTATPTAPEPTSSNTETAFTSVLPAGEKPEEGEPVLHVEAEPGFTARDKEKEVTTRPRETVQLPITQRASTVRVTTAQAAVTSHPHGGMQPGLHETSAPTAPGQPDHQPPRVEGGGTSVIKEVVEDGTANQLPAGEGSGEQDFTFETSGENTAVAAVEPGLRNQPPVDEGATGASQSLLDRKEVLG
modifications: left off: a dimerising Fc or GST
notes: recombinant mouse syndecan-1 ectodomain expressed as a fusion protein with GST
B2: GST-mS4ED: recombinant GST fusion of mouse syndecan-4 ectodomain, specificity control (protein)
chain: ESIRETEVIDPQDLLEGRYFSGALPDDEDAGGSDDFELSGSGDLDDTEEPRPFPEVIEPLVPLDNHIPENAQPGIRVPSEPKELEENEVIPKRAPSDVGDDMSNKVSMSSTAQGSNIFERTE
modifications: left off: a dimerising Fc or GST
notes: recombinant GST fusion of mouse syndecan-4 ectodomain, specificity control

System: MDA-MB-231 human mammary carcinoma cells
Experiment: Cell spreading assay (rhodamine-phalloidin), MDA-MB-231
Type: cell-based
Conditions: 2 h, LM609 30 μg/mL, GST-mS1ED or GST-mS4ED 20 μM; for cell spreading on FN: wells coated with 10 μg/mL FN, mAb 13 25 μg/mL; for cell spreading on VN: wells coated with 10 μg/mL VN, absence of serum
Procedure: FIG. 1 —MDA-MB-231 human mammary carcinoma cell spreading on VN, but not FN, is disrupted by soluble, recombinant Sdc-1ED. Cells were plated on wells coated with 10 μg/mL of VN or FN in plating medium alone or medium containing either 30 μg/mL mAb LM609, 25 μg/mL mAb 13, 20 μM GST-mS1ED or -mS4ED. Cells were incubated at 37° C. for 2 h, fixed and stained with rhodamine-conjugated phalloidin. Bar, 50 μm.
FIGS. 6A-B—Deletion of a region of the Sdc-1ED blocks αvβ3-mediated cell spreading. (FIG. 6A) Graphic representation of S1 expression constructs transfected into MDA-MB-231 cells and their relative expression levels as detected by FACS (mean fluorescent intensity). Note the locations of the mAb 281.2 and B-B4 binding sites; asterisks indicate the HS attachment sites. (FIG. 6B) Cells transfected with empty vector (NEO) or S1 constructs were seeded in plating medium on wells coated with either anti-hS1 mAb B-B4 (NEO+inset, hS1 and insets of mS1) or anti-mS1 mAb 281.2 (all others). Where noted, cells were pretreated in suspension with 1 μg/mL mAb P5D2 for 15 min prior to plating. Cells were incubated at 37° C. for 2 h, fixed and stained with rhodamine-conjugated phalloidin. Bar, 50 μm.
FIGS. 8A-H—Downregulation of Sdc-1 expression by siRNA disrupts cell spreading and migration on VN. (FIG. 8A) SiRNA targeting of hS1 mRNA. FACS analysis for (FIGS. 8B-C) hS1 (mAb B-B4), (FIG. 8D) hS4 (mAb F94-8G3) and (FIG. 8E) mS1 (mAb 281.2) expression against IgG controls (black filled histograms) in NEO and GPI-mS1ED expressing MDA-MB-231 cells 72 h after transfection with either lipid-vehicle alone (Vehicle or (V)) or 200 nM siRNA (RNAi or (R)). (FIG. 8F) NEO^MDA-MB-231 cells and MDA-MB-231 cells expressing GPI-mS1ED, mS1^Δ88-252, mS1^Δ122-252 and mS1^TDM were transfected with lipid-vehicle alone or 200 nM hS1-siRNA and seeded on wells coated with either 10 μg/ml of VN or FN. Cells were incubated at 37° C. for 2 h, fixed and stained with rhodamine-conjugated phalloidin. Bar, 50 μm. (FIG. 8G-H) Lipid-vehicle (gray-filled) or hS1-siRNA (black-filled) transfected cells were also plated on polycarbonate filters coated with either 10 μg/ml of VN (FIG. 8G) or FN (FIG. 8H) in a modified Boyden chamber. After 16 h, cells that migrated through the filter in response to 10% FBS in the lower chamber were quantified by colorimetric staining.
MDA-MB-231 human mammary carcinoma cells, plated in the absence of serum, adhere to and spread (˜15-20 min after plating) on wells coated with either 10 μg/mL VN or FN (FIG. 1). […] LM609 has no effect on spreading in response to FN; instead, the cells rely on […] to respond to FN as spreading is blocked by either 25 μg/mL mAb 13 (FIG. 1; Mould et al., 1996) or mAb 16 (unpublished data; Akiyama et al., 1989). […]

Molecule	cell spreading on FN	cell spreading on VN
B1	no effect	blocks cell spreading
B2	no effect	no effect
